{"source": "patent US20180327512A1", "key": {"[1]": {"target": "human polyclonal IgG (Gammanorm) (human)", "test": "column Qb10 retention after six 4 h cycles in 0.5 M NaOH, ratio to Zvar4 reference"}, "[2]": {"target": "human polyclonal IgG (Gammanorm) (human)", "test": "column Qb10 after six 4 h cycles in 0.5 M NaOH, ligand on agarose beads (ligand content 9.7 mg/ml)"}, "[3]": {"target": "human polyclonal IgG (Gammanorm) (human)", "test": "column Qb10 after six 4 h cycles in 0.5 M NaOH relative to initial, ligand on agarose beads (ligand content 9.7 mg/ml)"}, "[4]": {"target": "human polyclonal IgG (Gammanorm) (human)", "test": "column dynamic binding capacity at 10% breakthrough, ligand on agarose beads (ligand content 9.7 mg/ml), Gammanorm 2 mg/ml, 6 min residence time"}, "[5]": {"target": "human polyclonal IgG (Gammanorm) (human)", "test": "SPR (Biacore), ligand on CM5 chip, 1 mg/ml human polyclonal IgG; remaining IgG binding signal after 96-100 10-min cycles in 0.5 M NaOH"}, "[6]": {"target": "human polyclonal IgG (Gammanorm) (human)", "test": "SPR (Biacore), remaining IgG binding capacity after 96-100 cycles in 0.5 M NaOH, ratio to Zvar1 reference"}, "[7]": {"target": "human polyclonal IgG (Gammanorm) (human)", "test": "column Qb10 after six 4 h cycles in 0.5 M NaOH relative to initial, ligand on agarose beads (ligand content 10.8 mg/ml)"}, "[8]": {"target": "human polyclonal IgG (Gammanorm) (human)", "test": "column Qb10 after six 4 h cycles in 0.5 M NaOH, ligand on agarose beads (ligand content 10.8 mg/ml)"}, "[9]": {"target": "human polyclonal IgG (Gammanorm) (human)", "test": "column dynamic binding capacity at 10% breakthrough, ligand on agarose beads (ligand content 10.8 mg/ml), Gammanorm 2 mg/ml, 6 min residence time"}}, "data": [{"substance": "Zvar(N11K, H18K, S33K, D37E, A42R, N43A, L44I, K50R, L51Y)4 (designed binder)", "values": [{"measurement": "Capacity retention relative to ref. after 4 h cycles", "setting": "[1]", "value": 1.42}, {"measurement": "Remaining IgG capacity after six 4 h cycles", "setting": "[2]", "value": 52, "unit": "mg/mL"}, {"measurement": "Remaining IgG capacity after six 4 h cycles (%)", "setting": "[3]", "value": 92, "unit": "%"}, {"measurement": "Initial IgG capacity Qb10", "setting": "[4]", "value": 56.3, "unit": "mg/mL"}]}, {"substance": "Zvar(H18K, S33K, D37E, A42R, N43A, L44I, K50R, L51Y)1 (designed binder)", "values": [{"measurement": "Capacity after 96-100 cycles", "setting": "[5]", "value": 48, "unit": "%"}, {"measurement": "Capacity relative to reference", "setting": "[6]", "value": 1.04}]}, {"substance": "Zvar(Q9A, N11K, H18K, D37E, A42R)4 (designed binder)", "values": [{"measurement": "Capacity retention relative to ref. after 4 h cycles", "setting": "[1]", "value": 1.21}, {"measurement": "Remaining IgG capacity after six 4 h cycles (%)", "setting": "[7]", "value": 92, "unit": "%"}, {"measurement": "Remaining IgG capacity after six 4 h cycles", "setting": "[8]", "value": 52.5, "unit": "mg/mL"}, {"measurement": "Initial IgG capacity Qb10", "setting": "[9]", "value": 56.9, "unit": "mg/mL"}]}]}
